Reference: the supplement of paper PMC9170038

Test system: MS2 coat protein
Test: apparent KD of MS2 coat protein; designed switch direction (-1 OFF switch, 1 ON switch): -1; higher = weaker reporter binding
Method in brief: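 Designed RNA switches were transcribed on Illumina chips by stalled E. coli RNA polymerase and titrated with SNAP-549-labelled MS2 coat protein from 0.7 or 1.5 nM, doubling to 3 µM. Step length ran from 0.8–1.5 h at the lowest concentration to 10–20 min at the highest. The apparent KD is the median over clusters for each design, from curve-fitted normalised cluster fluorescence.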

[1] = input ligand: microRNA oligo, concentration not stated
[2] = Eterna round: R95, input ligand: microRNA oligo, concentration not stated
[3] = Eterna round: R95, input ligand: FMN 200 uM
[4] = Eterna round: R95, input ligand: none

Row | Sequence | apparent KD of MS2 coat protein (input ligand: FMN 200 uM) | apparent KD of MS2 coat protein (input ligand: none) | apparent KD of MS2 coat protein [2] | further results
1 | GAUCAUGCAGGAUAUACAGUAACCAUGAAAACAUGGAUCAAACAUGAGGAUCACCCAUGUAGAAGGGCAUGAUC [Omei Ex2 A22] (Eterna round: R97, puzzle: Exclusion 2) | 38.8 nM | 18.2 nM | – | –
2 | GAUUAGCAAGUGAGAUCCCACAUGAGGAUCACCCAUGUGCUCGUCUUAUAAGGUACUGUGACGAAAGUCACGGUACC [Mat - Sensor, turn-off var - Eli Mod - D6] (Eterna round: R97, puzzle: Sensor, turn-off variant 1) | 424 nM | 226 nM | – | –
3 | CCCGGGCUUGUGAGGAUAUGCGCGCGGAAAUGUGUGUAGAAGGCACAUGAGGAUCACCCAUGUAAGGGCCCGGG [-32.4, -30.4 kcal, A 23%, 6-0] (Eterna round: R97, puzzle: Brourd's mod of Exclusion 4) | 19.3 nM | 148 nM | – | –
4 | CCGGUUGGCGCAGGAUAUACAUGAGGAUCACCCAUGUUCAUGAGGAUCACCUAUGAGUUUUUGUUGUAGAAGGGUGGCCCGGCC (Eterna round: R96, puzzle: Exclusion NG 2) | 53.1 nM | 52.9 nM | – | apparent KD of MS2 coat protein [1]: 39.1 nM
5 | GUGUAGAUAGGAUAUGCUUUGAGCUUAUGAGAGUAUGCUCGACAUGAGGAUCACCCAUGUAGAAGGGUUUACAC [LRO-Excl2-04] (puzzle: Exclusion 2) | – | – | 68.5 nM | –
6 | GGAAAGGUAGGAUAUACGAAGAAAAAGGGUAGAAUAAUAACACAUGAGGAUCACCCAUGUAGAAGGACCAAAGG [Mat - Exclusion 2 - Mod of my Tesla design - D6] (puzzle: Exclusion 2) | – | – | 23.1 nM | apparent KD of MS2 coat protein [3]: 40.5 nM; apparent KD of MS2 coat protein [4]: 19.3 nM
7 | CAGUACUGAGGAUAUACAUGAGGAUCACCCAUGUGUUCCAGCUAGGAUACUAGCAAAAGUAGAAGGCAGUACUG [salish99_ex3_r3_095x] (Eterna round: R96, puzzle: Exclusion 3) | – | – | – | apparent KD of MS2 coat protein [1]: 20.9 nM
8 | CUGUUCCGUGUAGGAUAUGCAUAUUCUCAUUAUGCAGAAGGACAUGAGGAUCACCCAUGUAUGUUAUUAUCAUGUGUUACAUGC [Design 7] (Eterna round: R96, puzzle: Exclusion NG 1) | 220 nM | 38.8 nM | – | apparent KD of MS2 coat protein [1]: 35.9 nM
9 | AGCCCUUGUGUCAGGAUAUGCAUCCUUAAAGGACGGCAGAAGGGACAUGAGGAUCACCCAUGUAAAUAGAAAUU [Onatatge] (puzzle: Brourd's mod of Exclusion 4) | – | – | 84 nM | apparent KD of MS2 coat protein [3]: 16.2 nM; apparent KD of MS2 coat protein [4]: 141 nM
10 | CUCAUGCCUGAGGAUAUGCUGUACAAAAGUACUGCAGAAGGCAGGACAUGAGGAUCACCCAUGUGGCGAAAGCC [Omei Ex G10] (Eterna round: R97, puzzle: Exclusion 6) | 13.4 nM | 198 nM | – | –
11 | AAAACUGAAGGAUAUGCCAGGGUGAGAGCUGGUGACGUUUAACAUGAGGAUCACCCAUGUAGAAGGUCAAAACA [Usate] (puzzle: Exclusion 2) | – | – | 12.6 nM | –
12 | UUGCUUUCUUAGUACUCUAUAAGUUUUUUGUUCGUUUUAACAUGAGGAUCACCCAUGUCUAGUGGAUCUGAUCGGGU [JL ViennaUCT Isreen mod 7] (puzzle: Sensor v3, turn-off variant 2) | – | – | 303 nM | apparent KD of MS2 coat protein [3]: 150 nM; apparent KD of MS2 coat protein [4]: 163 nM
13 | AUGAGACAUGAGGAUCACCCAUGUGAGGAUAUGUAUGGAUGAAGGAAAGAAUGAGAGAACAGAAGGCACGAAGA [JR_Exclu1_Sub064] (puzzle: Exclusion 1) | – | – | 98.9 nM | apparent KD of MS2 coat protein [3]: 109 nM; apparent KD of MS2 coat protein [4]: 138 nM
14 | ACAUGUCAUCGAGGAUAUUGCACACAUGAGGAUCACCCAUGUAUUCGGUUGCUCUCGCGUGAGUUCGAGAAGGCGAUGUACAUU [Ex NG2 #84] (Eterna round: R96, puzzle: Exclusion NG 2) | 276 nM | 48.9 nM | – | apparent KD of MS2 coat protein [1]: 36.6 nM
15 | GGUCAGAUGGUAGGAUAUCCAUAUCGAGUGACCCUUUUAUAACAUGAGGAUCACCCAUGUCGGUGGGAGAAGGGCCGUACGGCG [salish99_ExNG02_R04_018] (Eterna round: R96, puzzle: Exclusion NG 2) | 244 nM | 224 nM | – | apparent KD of MS2 coat protein [1]: 129 nM
16 | CAGCGACAUGAGGAUCACCCAUGUGGCUUCGUUCCCGCUGGCAAGGAUAUCCAGUCUUCGUGAGAGGAGAAGGUGCAAAAUAAG [Atveso] (Eterna round: R96, puzzle: Exclusion NG 3) | 65.2 nM | 49.3 nM | – | apparent KD of MS2 coat protein [1]: 31.7 nM
17 | AGUCUGCGAGGAUAUACAUGAGGAUCACCCAUGUGCGAGAUACUAGUGAGGUCGAUUGGUAGAAGGCGCGGACA [Mat - Exclusion 3 - Mod of JL D86] (puzzle: Exclusion 3) | – | – | 84.5 nM | –
18 | GGAUGUCUAAAGGAUAUGCUGGAUUAAUAUCUGGCAGAAGGUUGGACAUGAGGAUCACCCAUGUAAAUUCUGCC [Omei Ex6 A11] (Eterna round: R97, puzzle: Exclusion 6) | 24.6 nM | 17.3 nM | – | –

Row | Sequence | apparent KD of MS2 coat protein (input ligand: FMN 200 uM) | apparent KD of MS2 coat protein (input ligand: none) | apparent KD of MS2 coat protein [2] | further results
19 | AAGAAACAUGAGGAUCACCCAUGUGAGGAUAUGAAAAAGAAAAGAAAAGAAAGAAGCAUCAGAAGGCACAAAGG [salish99-ex1_r3_026] (puzzle: Exclusion 1) | – | – | 32.1 nM | apparent KD of MS2 coat protein [3]: 36.1 nM; apparent KD of MS2 coat protein [4]: 31.1 nM
20 | UGUCAGUCAGGAUAUGCAUACGUAGACAUGAGGAUCACCCAUGUGACGUGGGACUGGUGUGUAGAAGGGACGAACA [EX5 #79] (Eterna round: R97, puzzle: Exclusion 5) | 29.8 nM | 28.6 nM | – | –
21 | GAUAAGGGAGGAUAUACGGAACGGUUUAUGCUCAGUGAGGCACAUGAGGAUCACCCAUGUAGAAGGCCCGACAG [Gezaerti] (puzzle: Exclusion 2) | – | – | 25.6 nM | –
22 | GAACUGAAGCUUUGCUUUAGUCGUACAUGAGGAUCACCCAUGUAGGAUAUGGUAGGCAAAGCUUACUAGAAGGACAGAGUGAUC [Mat - Exclusion NG 3 - Mod of JL - D69] (Eterna round: R96, puzzle: Exclusion NG 3) | 99.1 nM | 71.3 nM | – | apparent KD of MS2 coat protein [1]: 156 nM
23 | UCUAGCUUUUUGCGUCAAGCAUUGAAGUCUGUGAUCGUUACAUGAGGAUCACCCAUGUAUGUUUUAUGUCGUCUUGU [JR_SV3TOV2_Sub099] (puzzle: Sensor v3, turn-off variant 2) | – | – | 33.1 nM | apparent KD of MS2 coat protein [3]: 37.2 nM; apparent KD of MS2 coat protein [4]: 43.9 nM
24 | UGCUAGUGAGGAUAUGCUGGAAUAAAGAUUUGACGUGGCGAACAUGAGGAUCACCCAUGUAGAAGGCACAAUAC [Ususedes] (puzzle: Exclusion 2) | – | – | 12.1 nM | –
25 | CCAGGCGUCUUGGCUCGUCUUAUUUGGAGAGGAUUGAUAACAUGAGGAUCACCCAUGUGUGUGGGAGCGUUGCAGUG [JR_SV3TOV2_Sub019] (puzzle: Sensor v3, turn-off variant 2) | – | – | 137 nM | apparent KD of MS2 coat protein [3]: 75.5 nM; apparent KD of MS2 coat protein [4]: 102 nM
26 | GCGCGCGCAGGAUAUACAUGAGGAUCACCCAUGUAGGGCCCGGGUAUUCCCGGGCCCUGUAGAAGGGUGUGUGU [-40.4, -37.1 kcal, A 19%, 0-6] (Eterna round: R97, puzzle: Exclusion 3) | 21.8 nM | 113 nM | – | –
27 | GUUAAACAUGAGGAUCACCCAUGUAAGGAUAUGCUGCGGUCGAGAUGAAGUGAAUGCAGCAGAAGGUACAAUUG [Mat - Mod of JL D53] (puzzle: Exclusion 1) | – | – | 148 nM | –
28 | UAAGAUUAUUGAGGAUAUGGUAAUUUUUAUUAACCAGAAGGCAAACUCAACAUGAGGAUCACCCAUGUAUAAAGGGUAUUAGUU [JR_ExcNG1_Sub096] (Eterna round: R96, puzzle: Exclusion NG 1) | – | – | – | apparent KD of MS2 coat protein [1]: 51.2 nM
29 | GUGCUAUGAGGAUAUACGUUGGUGGGCAUCUGUGUGCUCCUACAUGAGGAUCACCCAUGUAGAAGGCAUGUCAC [LRO-Excl2-20] (puzzle: Exclusion 2) | – | – | 11.9 nM | –
30 | AGAAGUAGUAACCGAUCCUACAUGAGGAUCACCCAUGUAGCUAGACGUGCACGCGAGGCUCGUCAGACUACCAGAUG [salish99_TOv1_r3_028] (puzzle: Sensor v3, turn-off variant 1) | – | – | 133 nM | apparent KD of MS2 coat protein [3]: 210 nM; apparent KD of MS2 coat protein [4]: 289 nM
31 | UAUAUAUAGUAAGGAUAUGUAUAUAGUUUAUAAACAGAAGGUACUGACAUGAGGAUCACCCAUGUUUUAGUGUGGGCAUGUAGA [JMF's solution 56] (Eterna round: R96, puzzle: Exclusion NG 1) | – | – | – | apparent KD of MS2 coat protein [1]: 61.3 nM
32 | AAUAACAGAGGAUAUACUAUUUUAUGUAUUUAUUAUUUUGAACAUGAGGAUCACCCAUGUAGAAGGCUGAAUAA [JMF 20] (puzzle: Exclusion 2) | – | – | 19.9 nM | –
33 | GAUGGCUAAGGAUAUACAUAGAAGAAUUGAACUUGGAUUAUACAUGAGGAUCACCCAUGUAGAAGGUAGUCAUC [ExGluten 3 - Jieux - Exclusion 2] (Eterna round: R97, puzzle: Exclusion 2) | 82.9 nM | 24.6 nM | – | –
34 | GGAUCGUAUGUCAGGAUAUACCACUGGAUACAGUGGUAGAAGGGACAUGAGGAUCACCCAUGUCCUAUCGAUCC [Fiskers BMX 4 - 51] (puzzle: Brourd's mod of Exclusion 4) | – | – | 12 nM | –
35 | AUAUUGUGAGGAUAUGAUCUUAGUAUCGAAAGAUACUAAGUUCAGAAGGCACAUGAGGAUCACCCAUGUUUCUC [Long static hairpin v14] (Eterna round: R97, puzzle: Exclusion 4) | 982 nM | 70.6 nM | – | –
